This series relates to MS2 coat protein. The series can be described thus: apparent KD of MS2 coat protein; higher = weaker reporter binding. The note with it: Eterna round: R107. An outline of the steps: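 Each design's apparent KD comes from the median of binding-curve fits to its normalised clusters. Those clusters carried RNA switches transcribed on-chip from Illumina sequencing clusters. SNAP-549-labelled MS2 coat protein was titrated onto them in twofold steps (0.7 or 1.5 nM to 3 µM; per step 0.8–1.5 h down to 10–20 min). Conditions were 100 mM Tris-HCl pH 7.5, 80 mM KCl, 4 mM MgCl2, without or with constant ligand.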

The mark [1] stands for this setting: input ligand: theophylline 20 uM.
Where [2] appears, read: input ligand: theophylline 2 mM.
The mark [3] stands for this setting: input ligand: tryptophan 2.4 mM.

Turning to “UUCUUUGACGAUCUGGGUUUACCAGAUCGACGAGGACCGGUACGGCCGCCACUCGUGUUUUCUUUACAUGAGGAUCACCCAUGUU [#16Tryptophan A Same State]”, the “apparent KD of MS2 coat protein” value is, setting by setting: (input ligand: arginine 13.2 mM) 16.2 nM; under setting [1], 22.6 nM; under setting [2], 19.1 nM.
With “UUGACAUGAGGAUCACCCAUGUAAACUGAAGGAGCGUCGAAAAUGACAGGUAGGUCGCAGAAUAAUAAUGGUGAUCGUAAAUAUU [#12 Exclusion - Arginine A]”, the “apparent KD of MS2 coat protein” value (input ligand: arginine 13.2 mM) was 42.6 nM; the “apparent KD of MS2 coat protein” value (input ligand: none) was determined as 79 nM; the “apparent KD of MS2 coat protein” value under setting [1] is 79.9 nM; the “apparent KD of MS2 coat protein” value under setting [2] was 83.9 nM; the “apparent KD of MS2 coat protein” value under setting [3] was found to be 63 nM.
Regarding “UUGGAUGAAGGAGUGAAAAGCAACUCAGAUACCAGUCUGAGUAAUGACCCUUGGCAGCUGAGAACAUGAGGAUCACCCAUGUGAC [theeternabot_exclusion_MS2_Theo_A_34]”, the “apparent KD of MS2 coat protein” value (input ligand: arginine 13.2 mM) worked out at 11.7 nM, the “apparent KD of MS2 coat protein” value under setting [1] turned out to be 15.5 nM and the “apparent KD of MS2 coat protein” value under setting [3] stood at 17.1 nM.
On to “UUGGGUUUGUGAAGGAGCGGGAAUGUUUUAUAGUGGAUCCUAACAUGAGGAUCACCCAUGUCCCAGGUAGGUCGCGCGGGUUUGG [12.S]”, for which the “apparent KD of MS2 coat protein” value reads like this: (input ligand: arginine 13.2 mM) 40.1 nM; (input ligand: none) 64.8 nM; under setting [1], 100 nM; under setting [2], 79.9 nM; under setting [3], 55.5 nM.
In the case of “UUGUGUUUAUUGGUUUAGCUAUUAUGGUUGCGAGGACCGGUACGGCCGCCACUCGAUGGAACAUGAGGAUCACCCAUGUGAGGAA [JR_ExcTryptoA_Sub013]”, the “apparent KD of MS2 coat protein” value runs as follows: (input ligand: arginine 13.2 mM) 14.7 nM; (input ligand: none) 28 nM; under setting [1], 31.8 nM; under setting [2], 33.9 nM; under setting [3], 22.1 nM.
For “UUGUUGUUUGGAAGGAGCGUGGAUGAGUUAGAACAUGAGGAUCACCCAUGUUGGAUGAUACCACAGGUAGGUCGCCGGGUGGUGG [11.Z]” the same measures were 229 nM, 16.6 nM, 48.8 nM, 24.5 nM and 21.4 nM.
For “UUUAAUUUAAUAGAUACCAGCUAAUAAUAAUCCCGGAGGACAUGAGGAUCACCCAUGUGGAGCCCUUGGCAGCUAAAAUAAAUUU [Exclusion - Theophylline B]”, in that order: 20.1 nM, 32.9 nM, 63.7 nM, 22.4 nM and 28.9 nM.
Take “UUUGAUAUGACAGAUACCAGCGUGUUGUUGAACAUGAGGAUCACCCAUGUAGUGAUCAAGCGCCCUUGGCAGCUGGUGUGUUAGG [7.P]”: the “apparent KD of MS2 coat protein” value (input ligand: arginine 13.2 mM) is 55.5 nM, the “apparent KD of MS2 coat protein” value under setting [1] came to 323 nM and the “apparent KD of MS2 coat protein” value under setting [3] amounted to 158 nM.
For “UUUUAAAGCAUGGCGUAUCGGAAAACCGAUACCAGUACAGAAAUGUACCCUUGGCAGCGGAAUUUUACAUGAGGAUCACCCAUGU [Ex Theophylline A 1]”, in that order: 14.9 nM, 19.7 nM and 12.7 nM.
On to “UUUUUUUUGGGAAGGAGCGGGAACAUGUGGAUCUCCCAUGUACAUGAGGAUCACCCAUGUACCCAGGUAGGUCGCCCAUUUUUUU [Exclusion - Arginine B]”, for which the “apparent KD of MS2 coat protein” value was determined as 69.5 nM (input ligand: arginine 13.2 mM); 102 nM (input ligand: none); 94.7 nM under setting [1]; 112 nM under setting [2]; 66.2 nM under setting [3].
For “UUUUUUUUGGGAAGGAGCGGGAACAUGUGGAUCUCCCAUGUACAUGAGGAUCACCCAUGUACCCAGGUAGGUCGCUCAUUUUUUU [Exclusion - Arginine B]”, in that order: 28.4 nM, 25.8 nM, 38.6 nM, 37.8 nM and 26 nM.

The values are drawn from the supplement of paper PMC9170038.
